The results in this text go back to publication PMC10821591.

One may read the Kd as the constant that tells how readily two partners part at equilibrium. Higher therefore signals lower affinity. One may read the stoichiometry N as a count of units in the complex or per binding partner.

The target in this assay is GAP domain of human Ral GTPase Accelerating Protein α1 (residues 1807-1988) (human) (UniProt Q6GYQ0). Put plainly: ITC; MicroCal iTC200, 20 °C; cell: RalGAPα1(GAP) 15 μM; syringe: MAF1 150 μM, 19 injections of 2 μl; 20 mM Hepes pH 7.5, 150 mM NaCl, 1 mM TCEP; one-site model.
Sequence of GAP domain of human Ral GTPase Accelerating Protein α1 (residues 1807-1988) (human) (Q6GYQ0 1807-1988): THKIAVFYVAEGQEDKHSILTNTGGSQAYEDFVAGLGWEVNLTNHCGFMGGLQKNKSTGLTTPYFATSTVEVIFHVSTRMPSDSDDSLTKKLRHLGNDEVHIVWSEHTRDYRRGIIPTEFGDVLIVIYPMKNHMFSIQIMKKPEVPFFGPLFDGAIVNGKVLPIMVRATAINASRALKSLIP

In turn, “T. gondii Mitochondrial Association Factor 1b, structured C-terminal domain (residues 173-443) (domain or fragment)” returned a Kd of 334 nM, a dH of -14.6 kcal/mol and a stoichiometry N of 1.

On to “MAF1b STL-RKK (MAF1b 173-443, S438R/T439K/L441K) (domain or fragment)”, for which the Kd is 518 nM.
